# T1: FLAG/His6-p33 (Tomato bushy stunt virus, UniProt P15962 1-296)
# T1 construct: p33 replication protein of Tomato bushy stunt virus (TBSV); also called FLAG-p33; FLAG-tagged p33; source: yeast, co-expressed, detergent-solubilized membrane fraction; not shown: FLAG, N-terminal, kept; His6, N-terminal, kept
# T1 sequence: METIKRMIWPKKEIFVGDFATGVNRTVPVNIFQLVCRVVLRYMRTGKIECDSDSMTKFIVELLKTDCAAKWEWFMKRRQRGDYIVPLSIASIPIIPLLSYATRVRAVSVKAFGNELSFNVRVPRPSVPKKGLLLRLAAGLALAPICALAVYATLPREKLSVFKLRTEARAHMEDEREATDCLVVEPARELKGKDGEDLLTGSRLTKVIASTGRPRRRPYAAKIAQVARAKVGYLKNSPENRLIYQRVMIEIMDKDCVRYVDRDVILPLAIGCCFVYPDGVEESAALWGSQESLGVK
# B1: His6-Osh6p (natural protein, yeast (S. cerevisiae), UniProt Q02201 1-448, looked up)
# chain: MGSKKLTVGSDSHRLSKSSFSSNKSSHSATKDQPIDTDDIDEDDESGHNIILNIISQLRPGCDLTRITLPTFILEKKSMLERVTNQLQFPEFLLQAHSEKDPLKRFLYVMKWYLAGWHIAPKAVKKPLNPVLGEYFTAYWDLPNKQQAYYISEQTSHHPPECAYFYMIPESSIRVDGVVIPKSRFLGNSSAAMMDGSTVLQFLDIKDGNGKPEKYVLTQPNVYVRGILFGKMRIELGDHMIIKSPNFQADIEFKTKGYVFGTYDAIEGTVKDYDGNAYYEISGKWNDVMYLKDLKQPRSSPKVFLDTHKESPLRPKVRPLSEQGEYESRKLWKKVTDALAVRNHPVATEEKFQIEDHQRQLAKKRIEDGVEFHPKLFRRSKPGEDLDYCIYKNIPVDEDPEKQIRSILQIAPILPGQQFTDKFFIPAFEKIKSQKKMIENEKQNPAKQ
# notes: also called 6xHis-tagged Osh6; Osh6 ORP (OSBP1-like); source: yeast, co-expressed, detergent-solubilized membrane fraction; not shown: His6, N-terminal, kept
# B2: Cdc34 E2 enzyme (enzyme, yeast (S. cerevisiae), UniProt P14682 1-295, looked up)
# chain: MSSRKSTASSLLLRQYRELTDPKKAIPSFHIELEDDSNIFTWNIGVMVLNEDSIYHGGFFKAQMRFPEDFPFSPPQFRFTPAIYHPNVYRDGRLCISILHQSGDPMTDEPDAETWSPVQTVESVLISIVSLLEDPNINSPANVDAAVDYRKNPEQYKQRVKMEVERSKQDIPKGFIMPTSESAYISQSKLDEPESNKDMADNFWYDSDLDDDENGSVILQDDDYDDGNNHIPFEDDDVYNYNDNDDDDERIEFEDDDDDDDDSIDNDSVMDRKQPHKAEDESEDVEDVERVSKKI
# notes: Cdc34 ubiquitin-conjugating enzyme of yeast; also called Cdc34 ubiquitin-conjugating enzyme; source: yeast, detergent-solubilized membrane fraction
# B3: Pbp2 RNA binding protein (natural protein, UniProt P38151 1-413, looked up)
# chain: MSTETTKPSITTTPTTVLVSPNTLKRKKGEDTSEEQLEAEIKRVALKDADSHSDNDHDSPDNVPSDVHLRMLCLVKHASLIVGHKGATISRIKSETSARINISNNIRGVPERIVYVRGTCDDVAKAYGMIVRALLEEHGNEDNGEDIEISINLLIPHHLMGCIIGKRGSRLREIEDLSAAKLFASPNQLLLSNDRILTINGVPDAIHIATFYISQTLLNFQMESPQKNVKRSIYYQPTQFNSVLIDHSQPNTIFHQRNHQYHPSDKLLSYKPNKNLPISSTLLSMATPQYTTASVANATAFQPNFVIPNVTVLDGPVISPAPGNHLLMNFVQQEIFIDEKFVGNVIGKDGKHINSVKESTGCSIIIQDPVEGSSERRLTIRGTFMASQAAIMLISNKIEIDRSNAERKRRSPL
# notes: source: yeast, detergent-solubilized membrane fraction
# B4: Rpn11 deubiquitinase (enzyme, yeast (S. cerevisiae), UniProt P43588 1-306, looked up)
# chain: MERLQRLMMNSKVGSADTGRDDTKETVYISSIALLKMLKHGRAGVPMEVMGLMLGEFVDDYTVNVVDVFAMPQSGTGVSVEAVDDVFQAKMMDMLKQTGRDQMVVGWYHSHPGFGCWLSSVDVNTQKSFEQLNSRAVAVVVDPIQSVKGKVVIDAFRLIDTGALINNLEPRQTTSNTGLLNKANIQALIHGLNRHYYSLNIDYHKTAKETKMLMNLHKEQWQSGLKMYDYEEKEESNLAATKSMVKIAEQYSKRIEEEKELTEEELKTRYVGRQDPKKHLSETADETLENNIVSVLTAGVNSVAIK
# notes: Rpn11 deubiquitinase, co-opted cellular host factor in yeast; source: yeast, detergent-solubilized membrane fraction
# B5: Pex19p shuttle protein (natural protein, yeast (S. cerevisiae), UniProt Q07418 1-342, looked up)
# chain: MNENEYDNFDDLDDLLDEDPTKLDEAEPDDVQAKGSVYNDSENKEKNAESKDSDGVQVANESEEDPELKEMMVDLQNEFANLMKNNGNENNVKTEDFNKLISALEEAAKVPHQQMEQGCSSLKSNSTDKGTVNGSNPGFKNIVSNTLDRLKENGNKVDTSLAEETKESQRSGQNNNIDDILSQLLDQMVASGGKESAENQFDLKDGEMDDAITKILDQMTSKEVLYEPMKEMRSEFGVWFQENGENEEHKEKIGTYKRQFNIVDEIVNIYELKDYDELKHKDRVTELLDELEQLGDSPIRSANSPLKHGNEEEELMKMLEIDGNDPNLGNLDKELTDGCKQQ
# notes: Pex19p peroxisome membrane-biogenesis protein of yeast; source: yeast, detergent-solubilized membrane fraction
# B6: eIF4AIII-like RH2 DEAD-box helicase (enzyme, UniProt Q94A52 1-408, looked up)
# chain: MATANPGRGGGRRGGGAMDDDKLVFETTDGIEPITSFNDMGIKEDVLRGVYEYGFEKPSAIQQRAVMPILQGRDVIAQAQSGTGKTSMIALSVCQVVDTSSREVQALILSPTRELATQTEKTIQAIGLHANIQAHACIGGNSVGEDIRKLEHGVHVVSGTPGRVCDMIKRRSLRTRAIKLLILDESDEMLSRGFKDQIYDVYRYLPPDLQVCLVSATLPHEILEMTSKFMTEPVKILVKRDELTLEGIKQFFVAVEKEEWKFDTLCDLYDTLTITQAVIFCNTKRKVDYLSEKMRSHNFTVSSMHGDMPQKERDAIMNEFRSGDSRVLITTDVWARGIDVQQVSLVINYDLPNNRELYIHRIGRSGRFGRKGVAINFVKSDDIKILRDIEQYYSTQIDEMPMNVADLI
# notes: eIF4AIII-like RH2 DEAD-box helicase; source: yeast, detergent-solubilized membrane fraction
# B7: Tdh2p (GAPDH) (enzyme, yeast (S. cerevisiae), UniProt P00358 1-332, looked up)
# chain: MVRVAINGFGRIGRLVMRIALQRKNVEVVALNDPFISNDYSAYMFKYDSTHGRYAGEVSHDDKHIIVDGHKIATFQERDPANLPWASLNIDIAIDSTGVFKELDTAQKHIDAGAKKVVITAPSSTAPMFVMGVNEEKYTSDLKIVSNASCTTNCLAPLAKVINDAFGIEEGLMTTVHSMTATQKTVDGPSHKDWRGGRTASGNIIPSSTGAAKAVGKVLPELQGKLTGMAFRVPTVDVSVVDLTVKLNKETTYDEIKKVVKAAAEGKLKGVLGYTEDAVVSSDFLGDSNSSIFDAAAGIQLSPKFVKLVSWYDNEYGYSTRVVDLVEHVAKA
# notes: Tdh2p glyceraldehyde-3-phosphate dehydrogenase of yeast; also called Tdh2 GAPDH; source: yeast, detergent-solubilized membrane fraction
# B8: Tef1 eEF1A translation elongation factor (natural protein, yeast (S. cerevisiae), UniProt P02994 1-458, looked up)
# chain: MGKEKSHINVVVIGHVDSGKSTTTGHLIYKCGGIDKRTIEKFEKEAAELGKGSFKYAWVLDKLKAERERGITIDIALWKFETPKYQVTVIDAPGHRDFIKNMITGTSQADCAILIIAGGVGEFEAGISKDGQTREHALLAFTLGVRQLIVAVNKMDSVKWDESRFQEIVKETSNFIKKVGYNPKTVPFVPISGWNGDNMIEATTNAPWYKGWEKETKAGVVKGKTLLEAIDAIEQPSRPTDKPLRLPLQDVYKIGGIGTVPVGRVETGVIKPGMVVTFAPAGVTTEVKSVEMHHEQLEQGVPGDNVGFNVKNVSVKEIRRGNVCGDAKNDPPKGCASFNATVIVLNHPGQISAGYSPVLDCHTAHIACRFDELLEKNDRRSGKKLEDHPKFLKSGDAALVKFVPSKPMCVEAFSEYPPLGRFAVRDMRQTVAVGVIKSVDKTEKAAKVTKAAQKAAKK
# notes: Tef1 eEF1A translation elongation factor of yeast; source: yeast, detergent-solubilized membrane fraction
# B9: His6-VAP27-1 (natural protein, UniProt Q8VZ95 1-256, looked up)
# chain: MSNIDLIGMSNRDLIGMSNSELLTVEPLDLQFPFELKKQISCSLYLTNKTDNNVAFKVKTTNPKKYCVRPNTGVVLPRSTCEVLVTMQAQKEAPSDMQCKDKFLLQGVIASPGVTAKEVTPEMFSKEAGHRVEETKLRVTYVAPPRPPSPVHEGSEEGSSPRASVSDNGHGSEFSFERFIVDNKAGHQENTSEARALITKLTEEKQSAIQLNNRLQRELDQLRRESKKSQSGGIPFMYVLLVGLIGLILGYIMKRT
# notes: VAP27-1, plant ortholog of the yeast Scs2 VAP protein; also called 6xHis-tagged VAP27-1 (Scs2 ortholog); Vap27-1 (Scs2-like); source: yeast, co-expressed, detergent-solubilized membrane fraction; not shown: His6, N-terminal, kept
# B10: Vps4p AAA+ ATPase (enzyme, yeast (S. cerevisiae), UniProt P52917 1-437, looked up)
# chain: MSTGDFLTKGIELVQKAIDLDTATQYEEAYTAYYNGLDYLMLALKYEKNPKSKDLIRAKFTEYLNRAEQLKKHLESEEANAAKKSPSAGSGSNGGNKKISQEEGEDNGGEDNKKLRGALSSAILSEKPNVKWEDVAGLEGAKEALKEAVILPVKFPHLFKGNRKPTSGILLYGPPGTGKSYLAKAVATEANSTFFSVSSSDLVSKWMGESEKLVKQLFAMARENKPSIIFIDEVDALTGTRGEGESEASRRIKTELLVQMNGVGNDSQGVLVLGATNIPWQLDSAIRRRFERRIYIPLPDLAARTTMFEINVGDTPCVLTKEDYRTLGAMTEGYSGSDIAVVVKDALMQPIRKIQSATHFKDVSTEDDETRKLTPCSPGDDGAIEMSWTDIEADELKEPDLTIKDFLKAIKSTRPTVNEDDLLKQEQFTRDFGQEGN
# notes: Vps4p AAA+ ATPase (an ESCRT protein) of yeast; also called Vps4 AAA ATPase; source: yeast, detergent-solubilized membrane fraction
# B11: Vps23p ESCRT factor (natural protein, yeast (S. cerevisiae), UniProt P25604 1-385, looked up)
# chain: MSANGKISVPEAVVNWLFKVIQPIYNDGRTTFHDSLALLDNFHSLRPRTRVFTHSDGTPQLLLSIYGTISTGEDGSSPHSIPVIMWVPSMYPVKPPFISINLENFDMNTISSSLPIQEYIDSNGWIALPILHCWDPAAMNLIMVVQELMSLLHEPPQDQAPSLPPKPNTQLQQEQNTPPLPPKPKSPHLKPPLPPPPPPQPASNALDLMDMDNTDISPTNHHEMLQNLQTVVNELYREDVDYVADKILTRQTVMQESIARFHEIIAIDKNHLRAVEQAIEQTMHSLNAQIDVLTANRAKVQQFSSTSHVDDEDVNSIAVAKTDGLNQLYNLVAQDYALTDTIECLSRMLHRGTIPLDTFVKQGRELARQQFLVRWHIQRITSPLS
# notes: Vps23p ESCRT-I factor of yeast; also called Vps23 ESCRT I; source: yeast, detergent-solubilized membrane fraction
# Biological target: T1, FLAG/His6-p33
# Assay: co-IP; FLAG-p33 purified from detergent-solubilized membrane fractions of wt yeast and of yeast co-expressing Ufe1ΔTM; co-purified cellular proteins measured by Western blotting; amount from WT yeast taken as 100%
# Conditions: partners not purified
row,Binder,fold reduction of the co-purified amount in yeast expressing Ufe1ΔTM against wt yeast [fold]
1,B1,~3

# Biological target: T1, FLAG/His6-p33
# Assay: as above
# Conditions: partners not purified
# Remark: another data set of the same source
row,Binder,percentage of host protein co-purified with p33 from yeast expressing Ufe1ΔTM (WT yeast = 100%) [%]
1,B2,109 ± 14
2,B1,59 ± 24
3,B3,122 ± 15
4,B4,103 ± 6
5,B5,56 ± 13
6,B6,70 ± 18
7,B7,64 ± 17
8,B8,67 ± 25
9,B9,68 ± 30
10,B10,44 ± 27
11,B11,106 ± 7

# Biological target: T1, FLAG/His6-p33
# Assay: co-IP; viral replicase purified by FLAG affinity from detergent-solubilized membrane fractions of yeasts expressing FLAG-p33, FLAG-p92 and the repRNA; WT yeast or yeast depleted of Ufe1p (GALS::UFE1) or Use1p (GAL1::USE1) on glucose; Western blot with anti-6xHis
# Conditions: partners not purified
row,Binder,fold reduction of the co-purified amount in Ufe1p- or Use1p-depleted yeast against WT yeast [fold]
1,B1,~7
2,B9,~5

# Source: article PMC5963807, “Assembly-hub function of ER-localized SNARE proteins in biogenesis of tombusvirus replication compartment” (PLoS Pathogens, 2018)
